This assay relates to tumor target cells that constitutively express a fluorescent reporter (mKate). In words: Serial killing screen of IL15 formats and combinations with IL21 or IL7. It is filed as cell-based. As for the experimental part:
6 to 7 days after transduction, NK cells were collected, counted and seeded in a co-culture with tumor target cells that constitutively express a fluorescent reporter (mKate) at the appropriate effector to target (E:T) ratios. Tumor target cell growth (area) was quantified using an imaging-based system (Incucyte, Sartorius). After 48 to 72 hours of co-culture, new target cells were plated, and the NK cells were collected from the original plates and transferred to newly seeded targets for a 2nd or 3rd tumor re-challenge (serial killing). Target cell area was quantified and compared across different conditions. […] Similar serial target cell killing is shown at a different E:T ratio in FIG. 60E.
Additionally, various constructions of a chimeric protein containing IL15 tethered to the IL15 receptor (FIG. 61A) was tested.

B1: IL7 with crIL15: CAR-NK cells co-expressing IL7 (SEQ ID NO: 394) with crIL15 (protein, UniProt P13232 26-177, looked up)
Interleukin-7: DCDIEGKDGKQYESVLMVSIDQLLDSMKEIGSNCLNNEFNFFKRHICDANKEGMFLFRAARKLRQFLKMNSTGDFDLHLLKVSEGTTILLNCTGQVKGRKPAALGEAQPTKSLEENKSLKEQKKLNDLCFLKRLLQEIKTCWNKILMGTKEH
Take B1: the “serial target cell killing” value was “no improvement in serial target cell killing”.
